Patent US20050148508
Numbering of substitutions follows the chain as printed.

Assays:
[1] = target: T1, recombinant human PEDF expressed in CHO cells (UniProt P36955)
T1 sequence: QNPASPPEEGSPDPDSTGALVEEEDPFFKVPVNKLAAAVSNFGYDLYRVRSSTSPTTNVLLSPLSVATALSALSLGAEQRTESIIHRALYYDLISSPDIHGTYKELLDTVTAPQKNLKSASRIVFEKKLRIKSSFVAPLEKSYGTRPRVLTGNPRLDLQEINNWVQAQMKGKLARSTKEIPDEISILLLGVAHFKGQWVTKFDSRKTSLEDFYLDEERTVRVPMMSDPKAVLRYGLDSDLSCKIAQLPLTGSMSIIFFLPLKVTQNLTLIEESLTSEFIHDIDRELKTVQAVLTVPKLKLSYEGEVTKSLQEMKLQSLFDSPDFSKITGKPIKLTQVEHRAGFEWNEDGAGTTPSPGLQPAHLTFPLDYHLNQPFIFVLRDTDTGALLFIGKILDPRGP

[2] = test system: T2, pigment epithelium derived factor (PEDF) isolated from human plasma
T2 sequence: T1 sequence with T53M, E78D, Q79E

protein kinase CK2 holoenzyme
phosphorylation by CK2 in the presence of poly-L-lysine (autoradiography) [1]: both rPEDF and pIPEDF were phosphorylated by CK2 in the presence of poly-L-lysine | stoichiometry of phosphorylation [1]: ˜0.1 mol of phosphate per mol of rPEDF | stoichiometry of phosphorylation, rPEDF heat-treated (15 min at 56° C.) before phosphorylation [1]: reached a plateau at ˜0.25 mol/mol | phosphorylation by CK2 in the presence of poly-L-lysine (autoradiography) [2]: both rPEDF and pIPEDF were phosphorylated by CK2 in the presence of poly-L-lysine | stoichiometry of phosphorylation [2]: ˜0.02 mol of phosphate per mol of plasma PEDF | stoichiometry of phosphorylation, plasma PEDF heat-treated (15 min at 56° C.) before phosphorylation [2]: reached a plateau at ˜0.12 mol/mol
